The values that follow come from patent CN115558029A.

The target of assay [1] is 人PD-1蛋白(北京百普赛斯，货号PD1-H5221) (human) (UniProt Q15116). In words: binding ELISA on coated PD-1 protein. (In general: In an ELISA, binding on a coated surface is turned into a signal by an enzyme label.)
The target in assay [2] is PD-1 on Jurkat/PD-1细胞(Promega) (UniProt Q15116). The experiment in a line: cell-based or functional assay.
The target is the same in assay [3]. The experiment in a line: cell-based or functional assay. This is another data set of the same source.
Assay [4] has the same target. In words: cell-based or functional assay. The source holds these as a separate data set.
Assay [5] has as its target 人PD-1蛋白(北京百普赛斯，货号PD1-H5221) (human) (UniProt Q15116). The experiment in a line: binding ELISA on coated PD-1 protein. The source holds these as a separate data set.
Assay [6] has the same target. The experiment in a line: binding ELISA on coated PD-1 protein. The source holds these as a separate data set.
Assay [7] shares this target. The experiment in a line: binding ELISA, human PD-1 protein coated at 1 μg/mL, anti-human IgG (Fc)-HRP.
For assay [8] the target is unchanged. In words: binding ELISA on coated PD-1 protein. This is another data set of the same source.

In general, EC50 refers to the concentration at which the effect is half-maximal. Lower therefore signals higher potency in that assay.

Like-named read-outs stand apart in the source and are kept apart here.

B1: PD-1VHH抗体克隆huVHH3-3 (VHH, part only; not given: format as tested, part only)
VHH, part: EVQLVESGGGLVQPGGSLRLSCAASGRTSSMYAMGWFRQAPGNEREFVAGIGWENNTPYYARSVEGRFTISRDNVKNTVFLQMNRLRAEDTAVYYCAAQIGISGTLGDYWGQGTQVTVSS
For B1, the EC50 was 0.0164 µg/mL in assay [1]; 0.0053 µg/mL in assay [5]; 0.0073 µg/mL in assay [6]; 0.0202 µg/mL in assay [7]; 0.0122 µg/mL in assay [8]. Moreover, the EC50, PD-1报告基因法 amounted to 0.5 µg/mL in assay [2], 0.4 µg/mL in assay [3] and 0.2 µg/mL in assay [4]. Also, the EC50, 报告基因法 (CHO/PD-L1 + Jurkat/PD-1, One-Glo luminescence) in assay [4] was in the range of 0.2 to 0.5 µg/mL.
